Test results from US9238830.

Tests used:
[1] = system: N. meningitidis MC58 pilin (PilE, expression product of pilE, Accession No. AAF40497)
[2] = system: PilE N60A variant of N. meningitidis MC58 pilin (pPilEN60A)
[3] = system: PilE N61A variant of N. meningitidis MC58 pilin (pPilEN61A)
[4] = system: PilE S63A variant of N. meningitidis MC58 pilin (pPilES63A)
[5] = system: PilE T62A variant of N. meningitidis MC58 pilin (pPilET62A)

PglL oligosaccharyltransferase of N. meningitidis MC58 (Accession No. AAF41024), His10-tagged (pAMF5)
glycosylation of pilin in E. coli CLM24 (western blot, band shift) [1]: an extra band of slower electrophoretic mobility was detected with both a monoclonal anti-pilin antiserum and the C. jejuni glycan-specific R12 antiserum | transfer of O7 polysaccharide to PilE (western blot) [2]: mutation of N60, N61 and T62 do not affect glycosylation | transfer of O7 polysaccharide to PilE (western blot) [3]: mutation of N60, N61 and T62 do not affect glycosylation | transfer of O7 polysaccharide to PilE (western blot) [4]: mutation S63A completely abolishes transfer of the polysaccharide to PilE | transfer of O7 polysaccharide to PilE (western blot) [5]: mutation of N60, N61 and T62 do not affect glycosylation
